{
  "source": "paper PMC9804390",
  "assay_in_all_cases": "SPR",
  "key": {"[1]": {"molecular_target": "LRP1 CR doublet CR.27-28 (human)"}, "[2]": {"molecular_target": "LRP1 CR doublet CR.22-23 (human)"}, "[3]": {"molecular_target": "low density lipoprotein receptor-related protein 1 (LRP1) (UniProt Q07954)"}, "[4]": {"molecular_target": "LRP1 cluster II (CR.3–10) (UniProt Q07954)"}, "[5]": {"molecular_target": "LRP1 cluster IV (CR.21–31) (UniProt Q07954)"}, "LRP1 CR.6–7 doublet": {"molecular_target": "LRP1 CR.6–7 doublet"}, "LRP1 CR.7–8 doublet": {"molecular_target": "LRP1 CR.7–8 doublet (UniProt Q07954)"}, "LRP1 CR.6–8 triplet": {"molecular_target": "LRP1 CR.6–8 triplet"}, "[6]": {"molecular_target": "LRP1 CR doublet CR.5-6 (human)"}},
  "data": [
    {"substance": "B domain-deleted factor VIII (recombinant, product C) (natural protein)", "values": [
      {"measurement": "Kd", "setting": "[1]", "value": 165, "unit": "nM"},
      {"measurement": "Kd", "setting": "[2]", "value": 172, "unit": "nM"}
    ]},
    {"substance": "Recombinant full-length FVIII (product A) (natural protein)", "values": [
      {"measurement": "Kd", "setting": "[3]", "value": 22.8, "unit": "nM"},
      {"measurement": "Kd", "setting": "[4]", "value": 11.3, "unit": "nM"},
      {"measurement": "Kd", "setting": "[5]", "value": 19.6, "unit": "nM"},
      {"measurement": "Kd", "setting": "LRP1 CR.6–7 doublet", "value": 65.2, "unit": "nM"},
      {"measurement": "Kd", "setting": "LRP1 CR.7–8 doublet", "value": 81.5, "unit": "nM"},
      {"measurement": "Kd", "setting": "LRP1 CR.6–8 triplet", "value": 28.4, "unit": "nM"}
    ]},
    {"substance": "Recombinant full-length factor VIII (natural protein)", "values": [
      {"measurement": "Kd", "setting": "[6]", "value": 131, "unit": "nM"}
    ]}
  ]
}
